# Data reported in article PMC12815461 (2026).
# B1: FLAG-tagged wild-type GMCL1 (germ cell-less protein-like 1) [human] / 53BP1 (p53-binding protein 1), endogenous in HEK293T [human (endogenous in HEK293T)] (parent complex)
# chain 1: MGSLSSRVLRQPRPALAQQAQGARAGGSARRPDTGDDAAGHGFCYCAGSHKRKRSSGSFCYCHPDSETDEDEEEGDEQQRLLNTPRRKKLKSTSKYIYQTLFLNGENSDIKICALGEEWSLHKIYLCQSGYFSSMFSGSWKESSMNIIELEIPDQNIDVEALQVAFGSLYRDDVLIKPSRVVAILAAACLLQLDGLIQQCGETMKETVNVKTVCGYYTSAGTYGLDSVKKKCLEWLLNNLMTHQNVELFKELSINVMKQLIGSSNLFVMQVEMDIYTALKKWMFLQLVPSWNGSLKQLLTETDVWFSKQRKDFEGMAFLETEQGKPFVSVFRHLRLQYIISDLASARIIEQDAVVPSEWLSSVYKQQWFAMLRAEQDSEVGPQEINKEELEGNSMRCGRKLAKDGEYCWRWTGFNFGFDLLVTYTNRYIIFKRNTLNQPCSGSVSLQPRRSIAFRLRLASFDSSGKLICSRTTGYQILTLEKDQEQVVMNLDSRLLIFPLYICCNFLYISPEKKN
# chain 2: MDPTGSQLDSDFSQQDTPCLIIEDSQPESQVLEDDSGSHFSMLSRHLPNLQTHKENPVLDVVSNPEQTAGEERGDGNSGFNEHLKENKVADPVDSSNLDTCGSISQVIEQLPQPNRTSSVLGMSVESAPAVEEEKGEELEQKEKEKEEDTSGNTTHSLGAEDTASSQLGFGVLELSQSQDVEENTVPYEVDKEQLQSVTTNSGYTRLSDVDANTAIKHEEQSNEDIPIAEQSSKDIPVTAQPSKDVHVVKEQNPPPARSEDMPFSPKASVAAMEAKEQLSAQELMESGLQIQKSPEPEVLSTQEDLFDQSNKTVSSDGCSTPSREEGGCSLASTPATTLHLLQLSGQRSLVQDSLSTNSSDLVAPSPDAFRSTPFIVPSSPTEQEGRQDKPMDTSVLSEEGGEPFQKKLQSGEPVELENPPLLPESTVSPQASTPISQSTPVFPPGSLPIPSQPQFSHDIFIPSPSLEEQSNDGKKDGDMHSSSLTVECSKTSEIEPKNSPEDLGLSLTGDSCKLMLSTSEYSQSPKMESLSSHRIDEDGENTQIEDTEPMSPVLNSKFVPAENDSILMNPAQDGEVQLSQNDDKTKGDDTDTRDDISILATGCKGREETVAEDVCIDLTCDSGSQAVPSPATRSEALSSVLDQEEAMEIKEHHPEEGSSGSEVEEIPETPCESQGEELKEENMESVPLHLSLTETQSQGLCLQKEMPKKECSEAMEVETSVISIDSPQKLAILDQELEHKEQEAWEEATSEDSSVVIVDVKEPSPRVDVSCEPLEGVEKCSDSQSWEDIAPEIEPCAENRLDTKEEKSVEYEGDLKSGTAETEPVEQDSSQPSLPLVRADDPLRLDQELQQPQTQEKTSNSLTEDSKMANAKQLSSDAEAQKLGKPSAHASQSFCESSSETPFHFTLPKEGDIIPPLTGATPPLIGHLKLEPKRHSTPIGISNYPESTIATSDVMSESMVETHDPILGSGKGDSGAAPDVDDKLCLRMKLVSPETEASEESLQFNLEKPATGERKNGSTAVAESVASPQKTMSVLSCICEARQENEARSEDPPTTPIRGNLLHFPSSQGEEEKEKLEGDHTIRQSQQPMKPISPVKDPVSPASQKMVIQGPSSPQGEAMVTDVLEDQKEGRSTNKENPSKALIERPSQNNIGIQTMECSLRVPETVSAATQTIKNVCEQGTSTVDQNFGKQDATVQTERGSGEKPVSAPGDDTESLHSQGEEEFDMPQPPHGHVLHRHMRTIREVRTLVTRVITDVYYVDGTEVERKVTEETEEPIVECQECETEVSPSQTGGSSGDLGDISSFSSKASSLHRTSSGTSLSAMHSSGSSGKGAGPLRGKTSGTEPADFALPSSRGGPGKLSPRKGVSQTGTPVCEEDGDAGLGIRQGGKAPVTPRGRGRRGRPPSRTTGTRETAVPGPLGIEDISPNLSPDDKSFSRVVPRVPDSTRRTDVGAGALRRSDSPEIPFQAAAGPSDGLDASSPGNSFVGLRVVAKWSSNGYFYSGKITRDVGAGKYKLLFDDGYECDVLGKDILLCDPIPLDTEVTALSEDEYFSAGVVKGHRKESGELYYSIEKEGQRKWYKRMAVILSLEQGNRLREQYGLGPYEAVTPLTKAADISLDNLVEGKRKRRSNVSSPATPTASSSSSTTPTRKITESPRASMGVLSGKRKLITSEEERSPAKRGRKSATVKPGAVGAGEFVSPCESGDNTGEPSALEEQRGPLPLNKTLFLGYAFLLTMATTSDKLASRSKLPDGPTGSSEEEEEFLEIPPFNKQYTESQLRAGAGYILEDFNEAQCNTAYQCLLIADQHCRTRKYFLCLASGIPCVSHVWVHDSCHANQLQNYRNYLLPAGYSLEEQRILDWQPRENPFQNLKVLLVSDQQQNFLELWSEILMTGGAASVKQHHSSAHNKDIALGVFDVVVTDPSCPASVLKCAEALQLPVVSQEWVIQCLIVGERIGFKQHPKYKHDYVSH
# Variants of: B1
# Test: IP-MS (FLAG immunoprecipitation, MS/MS); HEK293T, 24 hr after transfection; read off a plot
row,screen value,Variant
1,~180,chain 1 E142K
